# Source: PMC6805999, “Molecular Mechanism of SR Protein Kinase 1 Inhibition by the Herpes Virus Protein ICP27” (mBio, 2019)
# Several values for one entry are separate records, joined by “and”; a condition that tells them apart may be missing. Identical values can stand only once.
# B1: WT ICP27: full-length wild-type HSV-1 protein ICP27 expressed from plasmid (protein)
# chain: MATDIDMLIDLGLDLSDSDLDEDPPEPAESRRDDLESDSSGECSSSDEDMEDPHGEDGPEPILDAARPAVRPSRPEDPGVPSTQTPRPTERQGPNDPQPAPHSVWSRLGARRPSCSPEQHGGKVARLQPPPTKAQPARGGRRGRRRGRGRGGPGAADGLSDPRRRAPRTNRNPGGPRPGAGWTDGPGAPHGEAWRGSEQPDPPGGQRTRGVRQAPPPLMTLAIAPPPADPRAPAPERKAPAADTIDATTRLVLRSISERAAVDRISESFGRSAQVMHDPFGGQPFPAANSPWAPVLAGQGGPFDAETRRVSWETLVAHGPSLYRTFAGNPRAASTAKAMRDCVLRQENFIEALASADETLAWCKMCIHHNLPLRPQDPIIGTTAAVLDNLATRLRPFLQCYLKARGLCGLDELCSRRRLADIKDIASFVFVILARLANRVERGVAEIDYATLGVGVGEKMHFYLPGACMAGLIEILDTHRQECSSRVCELTASHIVAPPYVHGKYFYCNSLF
# Columns and labels:
# SRPK1 = conditions: determined using in vitro phosphorylation assays; read-out: dissociation constant (Kd) of SRSF1 RS domain binding to SRPK1; cited from earlier work
# endogenous SRPK1 = target: T1, endogenous SRPK1 (Homo sapiens, UniProt Q96SB4); test: Coimmunoprecipitation of endogenous SRPK1 with ICP27 (anti-ICP27 IP, Western blot anti-SRPK1); format: cell-based; conditions: HeLa cells transfected with ICP27 plasmid, infected with 27-LacZ for 8 h
# T1 construct: endogenous in cells; host or cells: HeLa cells
# Text: (§1) ICP27 mutants were constructed to target sites within the RGG box that contact SRPK1 in the crystal structure. Arginines at positions 142, 144, 146, and 148 were changed to glycine (G) as single (R142G, R146G, or R148G), double (R142G R146G), and quadruple (R142G R144G R146G R148G) substitutions. The ICP27 mutant plasmids were cotransfected with a plasmid expressing green fluorescent protein (GFP)-SRPK1 and subsequently infected with ICP27 null mutant virus 27-LacZ to recapitulate the conditions of infection. At 8 h after infection, lysates were immunoprecipitated with anti-GFP antibody, and samples were analyzed by Western blotting and probed with antibody to ICP27 (Fig. 5A). […] ICP27 interaction with endogenous SRPK1 was also analyzed. Cells were transfected with WT and ICP27 mutant plasmids and infected with 27-LacZ as described above. Immunoprecipitation was performed with anti-ICP27 antibody and the blots were probed with antibody to SRPK1 (Fig. 5B). SRPK1 was only coimmunoprecipitated with WT ICP27 and was not detected with any of the mutants.
# (§2) HeLa cells cotransfected with GFP-SRPK1 and WT ICP27 or RGG box mutants were infected for 8 h with 27-LacZ. Immunoprecipitation was performed using anti-GFP antibody. Western blots were probed with anti-GFP or anti-ICP27 antibody and anti-β-actin as a loading control. […] GFP fluorescence was visualized directly. […]
# GFP-SRPK1 [1] = test: Immunofluorescence: cellular localization of GFP-SRPK1; format: cell-based, rabbit skin fibroblasts (RSF); conditions: RSF cells cotransfected with GFP-SRPK1 and ICP27 plasmid, infected with 27-LacZ, fixed 6 h later; representative of ∼80% of cells
# Experimental: HeLa cells cotransfected with GFP-SRPK1 and WT ICP27 or RGG box mutants were infected for 8 h with 27-LacZ. Immunoprecipitation was performed using anti-GFP antibody. Western blots were probed with anti-GFP or anti-ICP27 antibody and anti-β-actin as a loading control. (B) HeLa cells transfected with WT and ICP27 RGG box mutants were infected with 27-LacZ for 8 h. Immunoprecipitation was performed with anti-ICP27 antibody. Western blots were probed with anti-SRPK1 or anti-ICP27 antibody as indicated and anti-β-actin as a loading control. (C) RSF cells were transfected with GFP-SRPK1 and 16 h later were mock infected, infected with WT HSV-1 or 27-LacZ, or were cotransfected with GFP-SRPK1 and WT ICP27 or ICP27 RGG box mutants and infected 16 later with 27-LacZ. Cells were fixed 6 h later and immunofluorescent staining was performed with anti-ICP27. ICP4 antibody was used to stain the 27-LacZ sample to mark the nucleus. GFP fluorescence was visualized directly. The panels shown are representative of ∼80% of cells visualized. (D) HeLa cells were transfected with GFP-SRPK1 and WT ICP27 or RGG box mutants and were infected with 27-LacZ 16 h after transfection for 8 h. […]
# In immunofluorescence experiments, rabbit skin fibroblasts (RSF) were transfected and/or infected as indicated in the legend to Fig. 5. […] GFP fluorescence was viewed directly. […]
# GFP-SRPK1 [2] = target: T2, GFP-SRPK1 (Homo sapiens, UniProt Q96SB4); test: Coimmunoprecipitation of ICP27 with GFP-SRPK1 (anti-GFP IP, Western blot anti-ICP27); format: cell-based; conditions: HeLa cells cotransfected with GFP-SRPK1 and ICP27 plasmid, infected with 27-LacZ for 8 h
# T2 construct: expressed in transfected cells; host or cells: HeLa cells, infected with HSV-1 27-LacZ
# Text: as §1, §2
# [3] = tested on: SRPK1 phosphorylation of SR proteins; test: In vivo SR protein phosphorylation analysis (Western blot, antiphosphoepitope SR antibody); format: cell-based; conditions: HeLa cells cotransfected with GFP-SRPK1 and ICP27 plasmid, infected with 27-LacZ for 8 h
# Experimental: HeLa cells cotransfected with GFP-SRPK1 and WT ICP27 or RGG box mutants were infected for 8 h with 27-LacZ. Immunoprecipitation was performed using anti-GFP antibody. Western blots were probed with anti-GFP or anti-ICP27 antibody and anti-β-actin as a loading control. (B) HeLa cells transfected with WT and ICP27 RGG box mutants were infected with 27-LacZ for 8 h. Immunoprecipitation was performed with anti-ICP27 antibody. Western blots were probed with anti-SRPK1 or anti-ICP27 antibody as indicated and anti-β-actin as a loading control. (C) RSF cells were transfected with GFP-SRPK1 and 16 h later were mock infected, infected with WT HSV-1 or 27-LacZ, or were cotransfected with GFP-SRPK1 and WT ICP27 or ICP27 RGG box mutants and infected 16 later with 27-LacZ. Cells were fixed 6 h later and immunofluorescent staining was performed with anti-ICP27. ICP4 antibody was used to stain the 27-LacZ sample to mark the nucleus. GFP fluorescence was visualized directly. The panels shown are representative of ∼80% of cells visualized. (D) HeLa cells were transfected with GFP-SRPK1 and WT ICP27 or RGG box mutants and were infected with 27-LacZ 16 h after transfection for 8 h. Portions of cell lysates were fractionated by SDS-PAGE, and Western blots were probed with antiphosphoepitope SR antibody, anti-SF2 (SRSF1), anti-ICP27 antibody, and anti-lamin B1 antibody as a loading control. […]
# T2 sequence (Q96SB4 whole entry): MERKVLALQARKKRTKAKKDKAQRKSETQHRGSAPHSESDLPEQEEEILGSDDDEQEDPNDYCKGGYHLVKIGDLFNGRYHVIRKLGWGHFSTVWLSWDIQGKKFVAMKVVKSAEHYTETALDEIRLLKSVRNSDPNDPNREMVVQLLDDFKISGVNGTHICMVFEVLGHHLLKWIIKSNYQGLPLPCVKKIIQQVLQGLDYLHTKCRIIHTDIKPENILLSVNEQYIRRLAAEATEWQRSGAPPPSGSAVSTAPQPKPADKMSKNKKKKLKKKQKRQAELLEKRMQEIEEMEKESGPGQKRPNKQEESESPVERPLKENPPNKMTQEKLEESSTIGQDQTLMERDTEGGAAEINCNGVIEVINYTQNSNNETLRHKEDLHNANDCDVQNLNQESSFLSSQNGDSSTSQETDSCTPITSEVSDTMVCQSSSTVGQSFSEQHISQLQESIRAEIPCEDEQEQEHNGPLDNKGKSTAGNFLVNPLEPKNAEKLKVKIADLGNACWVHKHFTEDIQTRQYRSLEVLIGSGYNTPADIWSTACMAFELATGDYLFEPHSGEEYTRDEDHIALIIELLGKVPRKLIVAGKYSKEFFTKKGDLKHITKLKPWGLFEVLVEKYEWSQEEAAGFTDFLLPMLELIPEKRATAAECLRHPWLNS
# T1 sequence (Q96SB4 whole entry): as above
Molecule,Kd (SRPK1),coimmunoprecipitation of endogenous SRPK1 with ICP27 (endogenous SRPK1),cellular localization of SRPK1 (GFP-SRPK1 [1]),coimmunoprecipitation of ICP27 with GFP-SRPK1 (GFP-SRPK1 [2]),level of phosphorylation for SRp40 (SRSF5) reduced [3],phosphorylation of SRp30 (SRSF1) reduced [3]
"SRSF1: prototype SR protein, native cellular substrate of SRPK1",~50 nM and 50 nM,,,,,
B1,,coimmunoprecipitated,prominently nuclear,efficiently coimmunoprecipitated,reduced,reduced
